Where “and” joins values, the source holds several entries; their conditions need not be identical. Equal values may be shown once. Numbered stars: 1 amine (or outer) side, 2 acyl side, 3 side chain; on linkers, the order of the positions; unused ones are H or OH. Bridge positions count the residues as written; N and C are the ends. Square brackets hold non-standard residues; d marks the D form. Ends that are not written are not given here. Intermediate H = 1,1',1''-(1,7,13-trioxa-4,10,16-triazacyclooctadecane-4,10,16-triyl)tris(2-chloroethan-1-one), O=C(C[*:1])N1CCOCCN(C(=O)C[*:2])CCOCCN(C(=O)C[*:3])CCOCC1; Intermediate D = 1,1',1''-(1,4,7-triazonane-1,4,7-triyl)tris(prop-2-en-1-one), O=C(CC[*:1])N1CCN(C(=O)CC[*:2])CCN(C(=O)CC[*:3])CC1; Intermediate K = 1,3,5-tris(vinylsulfonyl)benzene, O=S(=O)(CC[*:1])c1cc(S(=O)(=O)CC[*:2])cc(S(=O)(=O)CC[*:3])c1; Intermediate C = 1,1',1''-(1,4,7-triazonane-1,4,7-triyl)tris(2-chloroethan-1-one); Intermediate I = 1,4,7-tris(vinylsulfonyl)-1,4,7-triazonane; 1Nal = N[C@@H](Cc1cccc2ccccc12)C(=O)O; Tle = CC(C)(C)[C@H](N)C(=O)O

In test [1] the target is T1, MT1-MMP hemopexin domain (UniProt P50281 319-511).
T1 construct: domain: hemopexin domain; also called hemopexin of MT1-MMP; membrane type 1 metalloprotease
Kind of test: fluorescence polarization (anisotropy) assay on MT1-MMP hemopexin domain; grade D = Ki >1,000 nM. The procedure:
(§1) Direct Binding Fluorescence Polarization or Anisotropy Assays are performed by titrating a constant concentration of fluorescent tracer (here, the fluoresceinated bicyclic peptide to be studied) with its binding partner (here, the MT1-MMP hemopexin domain). As the concentration of binding partner increases during the titration, the polarization signal changes in proportion to the fraction of bound and unbound material. This allows determination of […] (Kd) quantitatively. Assay data can be fit using standard ligand binding equations.
(§2) The titrant (binding partner) concentration is varied from 0.1 nM up to typically 5 μM. The range is chosen such that the maximum change in fluorescent polarization can be observed. Buffers employed are phosphate buffered saline in the presence of 0.01% Tween. Experiments were run in black 384 well low-bind/low volume plates (Corning 3820), and the fluorescent polarization signal was measured using a BMG Pherastar FS plate reader. Fluorescent tracers referred to in the text are bicyclic peptides that have been fluoresceinated using 5,6-carboxyfluorescein. Fluoresceination may be performed on the N-terminal amino group of the peptide, which is separated from the bicycle core sequence by a sarcosine spacer (usually Sar5). […]
On the technique in general: In fluorescence polarisation assays a small probe gives low polarisation when free and higher when bound to something large.

Test [2] has as its target T1, MT1-MMP hemopexin domain. Nature of the test: fluorescence polarization (anisotropy) assay on MT1-MMP hemopexin domain; grade A = Ki <50 nM. On the procedure:
as §1, §2

Test [3] concerns the target T1, MT1-MMP hemopexin domain. Nature of the test: fluorescence polarization (anisotropy) assay on MT1-MMP hemopexin domain; grade B = Ki >50 nM and <=100 nM. On the procedure:
as §1, §2

B1: I-59 (peptide)
peptide: AC[dA]NE[1Nal][dA]CEDFYD[Tle]C
modifications: linker 2-8-15 via Intermediate I
notes: also called peptide 4 cyclised with Intermediate I
For the molecule B1, in the test with MT1-MMP hemopexin domain [1], the Ki – broadly, the equilibrium dissociation constant of an inhibitor or competing ligand from its target – is more than 1000 nM.

B2: I-54 (peptide)
peptide: AC[dA]NE[1Nal][dA]CEDFYD[Tle]C
modifications: linker 2-8-15 via Intermediate C
notes: also called peptide 4 cyclised with Intermediate C
Regarding B2, the Ki in the test with MT1-MMP hemopexin domain [2] is less than 50 nM.

B3: I-61 (peptide)
peptide: AC[dA]NE[1Nal][dA]CEDFYD[Tle]C
modifications: linker 2-8-15 via Intermediate K
notes: also called peptide 4 cyclised with Intermediate K
B3: the Ki with MT1-MMP hemopexin domain [2] was less than 50 nM.

B4: I-58 (peptide)
peptide: AC[dA]NE[1Nal][dA]CEDFYD[Tle]C
modifications: linker 2-8-15 via Intermediate H
notes: also called peptide 4 cyclised with Intermediate H
Regarding B4, in the test with MT1-MMP hemopexin domain [3], the Ki was > 50 nM and ≤ 100 nM.

B5: I-55 (peptide)
peptide: AC[dA]NE[1Nal][dA]CEDFYD[Tle]C
modifications: linker 2-8-15 via Intermediate D
notes: also called peptide 4 cyclised with Intermediate D
As to B5, the Ki with MT1-MMP hemopexin domain [3] is > 50 nM and ≤ 100 nM.

Source of the values: patent publication US20180311300A1 (published 2018).
